The Kd is a measure of binding affinity in units of concentration. What is called koff is the rate constant with which the complex falls apart. By kon is commonly meant a measure of how fast the partners come together. Low readings indicate slow association, high ones fast association.

Changes are numbered by the printed parent chain. In names and notes the source's numbering stands.

We go through 19 molecules from US20210238298A1 (ALLIGATOR BIOSCIENCE, published 2021).

B1: anti-OX40 antibody 1490/1135 (antibody, V domains shown)
VH: EVQLLESGGGLVQPGGSLRLSCAASGFTFSSYAMSWVRQAPGKGLEWVSGISYYGGYTYYADSVKGRFTISRDNSKNTLYLQMNSLRAEDTAVYYCARYYPHHYIDYWGQGTLVTVSS
VL: not shown
notes: Tested as IgG
B2: CD86 mutant 1038 (ligand)
chain: APLKIQAYFNETADLPCQFANSQNLSLSELVVFWQDQENLVLNEVYLGKEKFDSVDSKYMGRTSFDSDSWTLRLHNLQIKDKGIYQCIIHHKKPTGMVKIHEMNSELSVLA
notes: Variant of the CD86 extracellular domain
B3: CD86 mutant 1041 (ligand)
chain: B2 chain with F9L, M97L
notes: as for B2
B4: CD86 mutant 1039 (ligand)
chain: B2 chain with D56S, T95S, E102Q, N104D
notes: as for B2
B5: CD86 mutant 1046 (ligand)
chain: B2 chain with L25Q, K80E, T95S, E102Q, N104D
notes: as for B2
B6: CD86 mutant 1044 (ligand)
chain: B2 chain with S26T, D56S, V98I, N104S
notes: as for B2
B7: CD86 mutant 1047 (ligand)
chain: B2 chain with M97L
notes: as for B2
B8: CD86 mutant 1045 (ligand)
chain: B2 chain with S26T, I84L, M97L
notes: as for B2
B9: CD86 mutant 1042 (ligand)
chain: B2 chain with K51I, D56S, T95S, E102Q, N104D
notes: as for B2
B10: CD86 mutant 1043 (ligand)
chain: B2 chain with V98I
notes: as for B2
B11: CD86 mutant 910 (ligand)
chain: LKIQAYFNETADLPCQFANSQNQSLSELVVFWQDQENLVLNEVYLGKEKFDSVDSKYMGRTSFDSDSWTLRLHNLQIKDKGIYQCIIHHKKPTGMVKIHEMNSELSVLA
notes: as for B2
B12: CD86 mutant 906 (ligand)
chain: B11 chain with F7I, Q23L, K49R, I82F, M95L
notes: as for B2
B13: CD86 mutant 904 (ligand)
chain: B11 chain with V29I, K49R, S52A, T93S, E100Q, N102D
notes: as for B2
B14: CD86 mutant 901 (ligand)
chain: B11 chain with Q23L, S24T, D54H, I86V, V96I, A109T
notes: as for B2
B15: CD86 mutant 908 (ligand)
chain: B11 chain with D54H
notes: as for B2
B16: CD86 mutant 907 (ligand)
chain: B11 chain with D54H, I82L, V96I
notes: as for B2
B17: CD86 mutant 900 (ligand)
chain: B11 chain with I86V, T93S, M95L
notes: as for B2
B18: human wild-type CD86 (monomeric soluble extracellular domain) (ligand)
chain: B2 chain with L25Q, D56H, I84L, V98I, K99R, E102Q
notes: also called wild type protein
B19: CD86 mutant H79A (Peach et al.) (ligand)
chain: B2 chain with L25Q, D56A, I84L, V98I, K99R, E102Q
notes: also called Prior Art

T2 sequence (Q07011 24-186 limits assumed): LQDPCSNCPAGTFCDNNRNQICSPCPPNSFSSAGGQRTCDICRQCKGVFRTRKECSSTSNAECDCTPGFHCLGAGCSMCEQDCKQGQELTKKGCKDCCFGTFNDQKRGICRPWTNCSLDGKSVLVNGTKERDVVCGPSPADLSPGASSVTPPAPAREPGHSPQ

The target of one assay is T1, OX40 chimera 1548: human OX40 with mouse module 3 and domains 4A and 4B (aa 108-167), on FreeStyle 293-F cells (human; mouse, UniProt P47741 104-165).
T1 construct: domain: module 3, 4A and 4B; Limits derived as for 1544
T1 sequence: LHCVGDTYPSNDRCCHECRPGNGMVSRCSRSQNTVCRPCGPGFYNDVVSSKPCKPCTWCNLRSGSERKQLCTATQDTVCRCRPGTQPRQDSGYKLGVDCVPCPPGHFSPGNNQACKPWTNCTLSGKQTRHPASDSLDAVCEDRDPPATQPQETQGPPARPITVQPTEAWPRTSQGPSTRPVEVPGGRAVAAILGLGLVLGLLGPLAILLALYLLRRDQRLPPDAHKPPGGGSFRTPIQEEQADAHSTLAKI
The assay can be described thus: flow cytometry, 293-F transfectants. On the procedure:
The mouse/human chimeras were transiently transfected into FreeStyle 293-F cells (Invitrogen), incubated 48 hours in FreeStyle 293 expression medium (Invitrogen) 37 C, 8% CO₂, 135 rpm. The transfected cells were incubated with human OX40 antibodies, human OX40L (hOX40L, RnD Systems), mouse OX40L (mOX40L, RnD Systems) and controls for 30 min 4° C. and then detected with a-huIgG-PE (Jackson Immunoresearch) 30 min 4° C. Cells were analyzed with FACS Verse (BD Biosciences). Binding to the different chimeric constructs were calculated as relative (mean fluorescence intensity) MFI compared to the binding of the isotype control.
In the case of B1, the “relative MFI vs isotype control” value is 1.1.

A further assay addresses T2, recombinant human CD137-Fc (R&D #838-4B) (human, UniProt Q07011 24-186).
T2 construct: Bought; also called Human CD137 (R&D systems); CD137 (R&D Systems); not shown: Fc part, not described
The assay can be described thus: ELISA.
As for B1, the binding result was “no binding”.

For another assay, the target named is T3, murine OX40 (murine, UniProt P47741 20-211, limits assumed).
T3 sequence (looked up): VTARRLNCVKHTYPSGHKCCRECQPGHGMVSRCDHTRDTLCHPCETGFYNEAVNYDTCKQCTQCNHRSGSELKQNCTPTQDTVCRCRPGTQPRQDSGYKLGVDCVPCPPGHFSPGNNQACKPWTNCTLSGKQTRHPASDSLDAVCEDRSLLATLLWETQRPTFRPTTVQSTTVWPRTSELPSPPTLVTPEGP
The assay can be described thus: ELISA. For orientation: ELISA stands for enzyme-linked immunosorbent assay.
As to B1, the binding result is “no binding”.

The target of a further assay is T4, CD40 (Ancell) (UniProt P25942 21-193).
T4 construct: also called CD40-Fc (Ancell #504-820); not shown: Fc part, not described
T4 sequence (P25942 21-193 limits assumed): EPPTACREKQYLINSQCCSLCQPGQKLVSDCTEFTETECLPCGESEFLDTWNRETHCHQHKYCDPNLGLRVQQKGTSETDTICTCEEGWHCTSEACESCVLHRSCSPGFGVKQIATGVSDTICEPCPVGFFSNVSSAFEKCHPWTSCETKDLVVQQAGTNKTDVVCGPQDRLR
The assay can be described thus: ELISA.
Regarding B1, the binding result is recorded as “no binding”.

The target in another assay is T5, soluble murine CTLA-4 (R&D systems) (murine, UniProt P09793 36-162).
T5 construct: Bought
The assay can be described thus: not described. On the procedure: In brief, 96-well flat bottom plate high binding plates (Greiner #655074) were coated with human CTLA-4 (Fitzgerald) incubating overnight at 4° C.
The sample (exemplary CD86 mutant) was pre-incubated at room temperature for 1 hour with soluble biotinylated human CTLA4 (Fitzgerald #30R-CD152) or soluble murine CTLA-4 (R&D systems) at different concentrations (serial dilutions ¼ from 30000 to 0.3 ng/ml).
The mixture was then added to the blocked wells in the ELISA plate. Detection was performed with Streptavidin-HRP (Pierce, #21126) and the plates were subsequently developed using SuperSignal Pico Chemiluminescent substrate (Thermo Scientific, #37069) and detected with Envision reader (Perkin Elmer).
Consider B2, for which the binding result is “binds”.
Same read-out and setting: the result for B3 reads “binds”; that for B4, “binds”; that for B5, “binds”.
For B6, the binding result is recorded as “binds”.
On the same count and under the same terms, the result for B7 reads “binds”.
On the same count and under the same terms, the entry for B8 is “binds”; for B9 it is “binds”; for B10 it is “binds”.
Same read-out and setting: the entry for B11 is “binds”.
B12: the binding result is on record as “binds”.
Still for that read-out and setting: the result for B13 reads “binds”; that for B14, “binds”.
As for B15, the binding result is “binds”.
B16: the binding result is recorded as “binds”.
Same read-out and setting: the entry for B17 is “binds”.

The target in a further assay is T6, CTLA4-Fc (Fitzgerald, #30R-CD152) (human, UniProt P16410 38-152).
T6 construct: Bought; also called human CTLA-4 (Fitzgerald); biotinylated-CTLA4; not shown: Fc part of the bought fusion, not described
T6 sequence (P16410 38-152 limits assumed): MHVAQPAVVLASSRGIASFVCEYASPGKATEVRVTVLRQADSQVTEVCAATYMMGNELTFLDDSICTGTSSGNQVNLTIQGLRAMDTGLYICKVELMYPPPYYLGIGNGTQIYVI
In words: ELISA on coated CTLA4-Fc and CD28-Fc. As for the experimental part: 96-well flat bottom high binding plates (Greiner, #655074) were coated with either CTLA4-Fc (Fitzgerald, #30R-CD152) or CD28-Fc (R&D systems, 342-CD) by incubating overnight at 4° C. […] The plates were washed again and sample or controls (serially diluted ⅕ from 200-0.001 μg/ml) were added to the wells. The samples were incubated for 1 h at room temperature and then washed. Detection antibody, goat-anti-human IgG Fcγ-HRP (Jackson, #109-035-098) was added and the plates were subsequently developed using SuperSignal Pico Chemiluminescent substrate (Thermo Scientific, #37069) and detected with an Envision reader (Perkin Elmer). EC50 values were calculated for both CTLA4 and CD28. The binding ratio (EC50 binding ratio=[EC50 for CD28]÷[EC50 for CTLA-4]) was calculated for each polypeptide and is shown in Table 1.1.
For the molecule B18, the “EC50 binding ratio ([EC50 for CD28]/[EC50 for CTLA-4])” value came out at 3.4.
On the same count and under the same terms, the figure for B11 is 7.7; for B12 it is 16.2; for B13 it is 12.2.
Same read-out and setting: the result for B14 reads 17.2; that for B15, 6.2.
Same read-out and setting: the figure for B16 is 30.5; for B17 it is 3.5.

Another assay has as its target T6, CTLA4-Fc (Fitzgerald, #30R-CD152). In words: SPR (Biacore), immobilised CTLA4-Fc. As for the experimental part:
(§1) Either CTLA4-Fc (Fitzgerald, #30R-CD152) or CD28-Fc (R&D Systems, 342-CD) was immobilized to the Biacore™ sensor chip, CM5, using conventional amine coupling. The CD86 mutant molecules and controls (serially diluted ½ 100-1.5 nM) were analyzed for binding in HBS-P (GE, BR-1003-68) at a flow rate of […]. The association was followed for 3 minutes and the dissociation for 10 minutes. Regeneration was performed twice using 5 mM NaOH for 30 seconds. The kinetic parameters and the affinity constants were calculated using BIAevaluation 4.1 software (Table 1.3).
For orientation: Surface plasmon resonance follows binding to a sensor surface in real time, without labels.
B18 displayed a dissociation constant (Kd) of 50 nM, a koff of 0.023 s⁻¹ and a kon of 460000 M⁻¹ s⁻¹.
For B2 the same measures were 12 nM, 0.012 s⁻¹ and 1e+06 M⁻¹ s⁻¹.
B3: the affinity, expressed as Kd, was 12 nM; the koff is 0.0084 s⁻¹; the on-rate (kon) was found to be 700000 M⁻¹ s⁻¹.
For B4 the same measures were 8 nM, 0.0085 s⁻¹ and 1e+06 M⁻¹ s⁻¹.
For B5 the same measures were 6 nM, 0.008 s⁻¹ and 1.4e+06 M⁻¹ s⁻¹.
For B6 the same measures were 8 nM, 0.0094 s⁻¹ and 1.1e+06 M⁻¹ s⁻¹.
As for B7, the dissociation constant (Kd) was 10 nM, the dissociation rate constant (koff) amounted to 0.0084 s⁻¹ and the kon came out at 850000 M⁻¹ s⁻¹.
Regarding B8, binding was characterised by a dissociation constant (Kd) of 9 nM, the koff stood at 0.0083 s⁻¹ and the association rate constant (kon) amounted to 940000 M⁻¹ s⁻¹.
For B9 the same measures were 25 nM, 0.011 s⁻¹ and 440000 M⁻¹ s⁻¹.
For B19 the same measures were 63 nM, 0.022 s⁻¹ and 340000 M⁻¹ s⁻¹.
For B10 the same measures were 10 nM, 0.011 s⁻¹ and 1.1e+06 M⁻¹ s⁻¹.

The target is the same in another assay. The assay can be described thus: SPR on immobilised CTLA4-Fc and CD28-Fc. As for the experimental part: as §1
Consider B18, for which the “Kd binding ratio ([Kd for CD28]/[Kd for CTLA-4])” value (from here on “Kd binding ratio”) turned out to be 1.6.
The same measure, in the same setting: the result for B11 reads 5.1; that for B12, 0.8.
Consider B13, for which the “Kd binding ratio” value was determined as 6.8.
In the case of B14, the “Kd binding ratio” value is 2.7.
On the same count and under the same terms, the figure for B15 is 4.7; for B16 it is 5.6.
